In the experiment the target is Fas on primary mouse hepatocytes (mouse) (UniProt P25446). Kind of experiment: cell-based or functional assay.
Chain of UniProt P25446 (P25446 22-327): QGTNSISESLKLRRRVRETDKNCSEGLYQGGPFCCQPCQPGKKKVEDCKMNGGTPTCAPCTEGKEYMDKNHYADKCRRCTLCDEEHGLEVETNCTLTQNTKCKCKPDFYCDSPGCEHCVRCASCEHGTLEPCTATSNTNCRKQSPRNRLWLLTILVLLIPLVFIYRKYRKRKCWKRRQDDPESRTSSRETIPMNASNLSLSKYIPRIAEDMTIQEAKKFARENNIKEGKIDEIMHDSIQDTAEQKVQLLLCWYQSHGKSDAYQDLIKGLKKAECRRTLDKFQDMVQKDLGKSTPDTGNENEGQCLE

As to agonistic anti-Fas antibody (Jo2), the TUNEL-stained cells, hepatocytes from Fas (sequence1)-siRNA treated mice (Fas expression silenced), Jo2 500 ng/mL for 24 hours stood at 7.9% and the apoptotic cells by FITC-TUNEL staining, hepatocytes from untreated or mock-treated mice, Jo2 500 ng/mL for 24 hours was determined as 87.8%.

(Values after patent publication US20070254850A1.)
